Reference: patent US20090325867A1, “RECEPTOR-SPECIFIC TUMOUR NECROSIS FACTOR-RELATED APOPTOSIS-INDUCING LIGAND (TRAIL) VARIANTS” (MEDICAL RESEARCH COUNCIL, priority 2005, published 2009)

Experiments:
Ramos cells [1] = assay: Caspase-8 and -3 processing by Western blot in Ramos cells; type: cell-based; details: FIG. 1D
Method: (§1) Cells were also exposed to HGS-ETR1 or HGSETR2 (1 μg ml^−1). C: Ramos or Jurkat cells were pre-incubated for 30 min either alone or with TRAIL-R1 blocking Ab or TRAIL-R2 neutralizing Ab (5 μg ml^−1). […] D: Ramos and Jurkat cells were exposed to wt TRAIL or TRAIL mutants as described above and processing of caspase-3 and -8 determined by Western blot analysis. The asterisk indicates a non-specific band. The lower panel of the blot for detection of the caspase-8 p18 subunit was exposed for twice as long as the upper panel. Apoptosis was assessed by phosphatidylserine externalization and results expressed as the Means±SEM of at least 3 separate determinations.
(§2) Apoptosis was quantified by phosphatidylserine (PS) externalization in the presence of propidium iodide as described (MacFarlane et al., 2002 ibid.). Samples for Western blot analysis were prepared and caspase processing detected as described (Inoue et al., 2004 ibid.; MacFarlane et al., 2005 ibid.).
To confirm that the mutants were inducing apoptosis, we examined their effects on the processing of caspase-8, the apical caspase in death receptor-induced apoptosis and caspase-3, an effector caspase.

Ramos cells [2] = assay: Apoptosis by phosphatidylserine (PS) externalization in Ramos cells; type: cell-based; details: for ability to induce apoptosis in Ramos cells (in words): PS externalization, compared with wt TRAIL
Method: as §1
Ramos, an Epstein-Barr virus-negative Burkitt's lymphoma cell line, and Jurkat T cells (clone E6-1) were cultured as described (MacFarlane et al (2005 Cell Death and Differentiation vol 12 pages 773-782)). Blood samples were obtained from CLL patients, with patient consent and local ethical committee approval and CLL cells purified as described (MacFarlane et al (2002 Oncogene 21, 6809-6818). Cells were incubated for 16 h with depsipeptide (10 nM), provided by Dr. E. Sausville (NCI, USA). Cells were then cultured for a further 6 h with either HGSETR1 or HGS-ETR2, agonistic mAbs to TRAIL-R1 or -R2, respectively (Human Genome Sciences, Rockville, Md.), His-TRAIL-LE (a recombinant TRAIL with low endotoxin—Alexis Corporation, Nottingham, UK), His-TRAIL, a similar form of human recombinant TRAIL (MacFarlane et al (1997 J Biol Chem 272, 25417-25420)) but not further purified to reduce endotoxin levels or a mutant form of His-TRAIL as described (MacFarlane et al., 2005 ibid.). Cell lines were also pre-incubated for 30 min with a TRAIL-R1 blocking Ab and a TRAIL-R2 neutralizing Ab from Alexis and R&D systems, respectively, prior to exposure to TRAIL. Freshly isolated cells from patients with MCL were isolated, purified and incubated with different forms of TRAIL as described above for CLL cells. Samples were either analyzed immediately for apoptosis or stored at −80° C. for subsequent Western blotting. Other methods and reagents were as described (Inoue (2004 Cell Death Differ 11 Suppl 2, S193-206); MacFarlane et al., 2005 ibid).
as §2
Ramos and Jurkat T cells (clone E6-1) were cultured as described (MacFarlane et al, 2005 ibid.). The breast tumour cell line, MCF-7 (clone F43) was cultured as described previously (MacFarlane et al., 2000 J. Cell Biol. 148, 1239-1254). Cells were cultured for either 4 h (Ramos and Jurkat) or 6 h (MCF-7) with His-TRAIL (MacFarlane et al, 1997 J Biol Chem 272, 25417-25420), HGS-ETR1 or HGS-ETR2 (Human Genome Sciences), or a mutant form of His-TRAIL (MacFarlane et al, 2005 ibid.). Samples were analyzed for apoptosis, Western blotting, or TRAIL DISC activation as described (MacFarlane et al, 2005 ibid.; MacFarlane et al. 2002 Oncogene 21, 6809-6818). Mutants of His-TRAIL (residues 95-281) were generated using the Quik-Change site-directed mutagenesis kit (Stratagene, Calif.), confirmed by DNA sequencing, expressed in E. coli and purified as described (MacFarlane et al, 1997 ibid.). For siRNA targeting of TRAIL-R1/-R2, MCF-7 cells were seeded into six-well plates immediately prior to effectene-mediated RNAi transfection with either a negative control siRNA (30 nM, Ambion, #4611), or preannealed siRNA oligonucleotides for TRAIL-R1 or TRAIL-R2 (30 nM, Ambion), with the sequence and validity described (Ren et al, 2004 Mol. Biol. Cell vol 15 pp 5064-5074). After 40 h of transfection the cells were collected and total TRAIL-R1 or TRAIL-R2 levels assessed. […]

B1: HGS-ETR2 (antibody, INN chains, looked up, V domains shown)
VH: EVQLVQSGGGVERPGGSLRLSCAASGFTFDDYGMSWVRQAPGKGLEWVSGINWNGGSTGYADSVKGRVTISRDNAKNSLYLQMNSLRAEDTAVYYCAKILGAGRGWYFDLWGKGTTVTVSS
VL: SSELTQDPAVSVALGQTVRITCQGDSLRSYYASWYQQKPGQAPVLVIYGKNNRPSGIPDRFSGSSSGNTASLTITGAQAEDEADYYCNSRDSSGNHVVFGGGTKLTVL
Q: With B1 as the molecule, how does the “processing of caspase-8 and caspase-3” value (Ramos cells [1]) read?
A: not

Q: What about the “ability to induce apoptosis in Ramos cells (in words)” value (Ramos cells [2]) of the same molecule?
A: not in Ramos cells

B2: TRAIL.R1-5: 6His TRAIL 95-281 with 193Ser, 199Val, 201Arg, 213Trp and 215Asp (protein)
chain: TSEETISTVQEKQQNISPLVRERGPQRVAAHITGTRGRSNTLSSPNSKNEKALGRKINSWESSRSGHSFLSNLHLRNGELVIHEKGFYYIYSQTYFRFSEEIKEVTRNDKQMVQYIYKWTDYPDPILLMKSARNSCWSKDAEYGLYSIYQGGIFELKENDRIFVSVTNEHLIDMDHEASFFGAFLVG
modifications: biotin (site not stated) in the DISC analysis only; not biotinylated in the apoptosis assays
notes: 6His TRAIL 95-281 with 193Ser, 199Val, 201Arg, 213Trp and 215Asp
Q: How did the “processing of caspase-8 and caspase-3” value (Ramos cells [1]) turn out when B2 was run?
A: induced the processing

Q: What about the “inhibition of ligand-induced apoptosis by receptor blocking antibodies” value (Ramos cells [2]; 30 min pre-incubation with TRAIL-R1 blocking Ab or TRAIL-R2 neutralizing Ab (5 μg ml^−1)) of the same molecule?
A: blocking antibody specific to TRAIL-R1 but not to TRAIL-R2 to inhibit apoptosis

Q: What about the “concentration-response of apoptosis compared with wt TRAIL” value (Ramos cells [2]; 4 h, FIG. 1B) of the same molecule?
A: very similar concentration-response to wt TRAIL

Q: And the “% PS+ cells, Ramos” value (Ramos cells [2]; 4 h exposure, 500 ng ml^−, Mean ± SEM of at least three determinations)?
A: 35.9 ± 6.4%

Q: What about the “ability to induce apoptosis in Ramos cells (in words)” value (Ramos cells [2]) of the same molecule?
A: retained most of the activity of wt TRAIL
